Columns and labels:
[1] = tested on: Cc1ncc(C[n+]2csc(CCO[P@](=O)(O)OP(=O)(O)O)c2C)c(N)n1; assay: purified protein, by the assay type; conditions: other: L66V, TPP, 50 mM Tris-HCl pH 7.5, 37° C., 20 min, 500 ng enzyme
Method: The kinetic curves were plotted and the Michaelis Menten constant (Km) was calculated using GraphPad Prism 5.0 software.

[2] = tested on: O=[N+]([O-])c1ccc(OP(=O)(O)O)cc1; assay: Affinity towards pNPP, L66V; assay type: biochemical, Shigella flexneri; conditions: other: L66V, 50 mM Tris-HCl pH 7.5, 37° C., 20 min, 500 ng enzyme
From the text: However, not all reactions successfully generated PCR products by agarose gel electrophoresis. The successful mutations were transformed into the expression host and proteins were expressed and purified to homogeneity by affinity chromatography.
Other substrates like 2-Glycerophosphate, Pyridoxal phosphate and phenyl phosphate were not hydrolysed by the mutants (Table 2 and FIG. 8A-B).
(§1) The formation of product. Para-nitro phenol was monitored colorimetrically at 405 nm using multi-mode spectrophotometer (Biotek instruments).
(§2) Respective colorimetric/fluorescence assays (mentioned above).

[3] = tested on: O=[N+]([O-])c1ccc(OP(=O)(O)O)cc1; assay: Affinity of pNPP to EIEC apyrase (Table 6); assay type: biochemical; conditions: other: EIEC apyrase, pH 7.5, 37.0 °C
From the text: as §1, §2

[4] = tested on: Nc1ncnc2c1ncn2[C@@H]1O[C@H](COP(=O)(O)OP(=O)(O)OP(=O)(O)O)[C@@H](O)[C@H]1O; assay: Affinity of ATP to EIEC apyrase (Table 6); assay type: biochemical; conditions: other: EIEC apyrase, pH 7.5, 37.0 °C
From the text: as §2

[5] = tested on: O=[N+]([O-])c1ccc(OP(=O)(O)O)cc1; assay: pNPP dephosphorylation (Example 3), mutant; assay type: biochemical, Shigella flexneri; conditions: other: mutant of Example 1, 50 mM Tris, pH 7.5, 37° C., 15 min, 2 μg enzyme
Method: In order to improve the activity of apyrase and its tolerance to high salt conditions, the inventors mutated the apyrase gene randomly using an error prone PCR method starting from the wild-type Shigella flexneri apyrase DNA sequence (SEQ ID NO: 4) as template. The method incorporates repeated copying of the template at high MgCl2 concentration (5 mM) with Taq polymerase. After every fourth cycle, one fifth of the reaction mixture was transferred to fresh PCR tube and the same process was repeated 22 times to obtain a product that will have randomly mutated nucleotides which can be identified by sequencing. The mutated gene was cloned in pET21a vector. The mutated DNA sequence obtained is presented as SEQ ID NO: 2, containing a total of 31 mutations leading to amino-acid changes (see SEQ ID NO:3 compared to the wild-type amino-acid sequence of SEQ ID NO: 1).
(§3) Products: para Nitro phenol (PNP, yellow colour, absorbance at 405 nm) and phosphate • pNPP+Apyrase→PNP+Pi
To further study the capability of the mutant enzyme to hydrolyse pNPP, the substrate (pNPP) was titrated and incubated with the mutant apyrase. […]
The enzymes (2 μg) were incubated with different concentrations of pNPP (dissolved in 50 mM Tris, pH 7.5) in a 100 μL reaction mixture. […] These were incubated at 37° C. for 15 minutes and absorbance was taken at 405 nm.

[6] = target: T1, wild-type Shigella flexneri apyrase, SEQ ID NO: 1 (Shigella flexneri, UniProt Q59909); assay: pNPP dephosphorylation (Example 3), wild type; assay type: biochemical; conditions: 50 mM Tris, pH 7.5, 37° C., 15 min, 2 μg enzyme
T1 sequence (Q59909 26-246): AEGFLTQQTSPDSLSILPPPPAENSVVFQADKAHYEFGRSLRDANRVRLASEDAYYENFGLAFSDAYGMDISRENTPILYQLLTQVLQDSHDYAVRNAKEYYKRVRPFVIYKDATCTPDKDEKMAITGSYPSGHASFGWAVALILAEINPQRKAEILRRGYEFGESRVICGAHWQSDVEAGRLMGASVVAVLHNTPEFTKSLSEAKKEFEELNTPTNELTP
Method: as §3
(§4) To further study the capability of the mutant enzyme to hydrolyse pNPP, the substrate (pNPP) was titrated and incubated with the mutant apyrase. As controls, alkaline phosphatase (known to hydrolyse pNPP) and the wildtype enzyme were also included.
(§5) The enzymes (2 μg) were incubated with different concentrations of pNPP (dissolved in 50 mM Tris, pH 7.5) in a 100 μL reaction mixture. For alkaline phosphatase, pNPP was dissolved in carbonate buffer (pH 10.3). Control reaction with pNPP lacking WT, mutant apyrase and alkaline phosphatase was also included. These were incubated at 37° C. for 15 minutes and absorbance was taken at 405 nm.

[7] = tested on: EIEC apyrase variant H116L; assay: Affinity of pNPP to EIEC H116L (Table 6); assay type: biochemical
From the text: as §1, §2

alkaline phosphatase = assay: pNPP dephosphorylation (Example 3), alkaline phosphatase; assay type: biochemical; conditions: carbonate buffer pH 10.3, 37° C., 15 min, 2 μg enzyme
Method: as §3, §4, §5

[8] = pNPP dephosphorylation assay (Example 3); assay type: biochemical; conditions: 2 μg enzyme, 3 mM pNPP, 50 mM Tris pH 7.5, 37° C., 15 minutes, FIG. 5
Method: Wild-type and mutant apyrase from Example 1 (2 μg each) were incubated with 3 mM pNPP (pNPP was dissolved in 50 mM Tris pH 7.5) in a 100 μL reaction mixture. Control reaction with pNPP lacking WT and mutant apyrase was also included. These were incubated at 37° C. for 15 minutes and absorbance was taken at 405 nm.
as §4, §5

[9] = Bhargava et al. Current Science 1995; cited from earlier work
[10] = TPP assay / affinity (Examples 4-5); assay type: biochemical; conditions: 5.0 mM TPP, 20 minutes, 37° C.; FIG. 8B, 9C
Method: A stock of freshly prepared TPP (50 mM) was prepared before performing every assay. […] Hydrolysis of Thiamine pyrophosphate (TPP) releases Thiamine, which forms a thiochrome fluorophore on addition of hydrogen peroxide and horse radish peroxidase (HRP) in alkaline conditions (NaOH-HRP-H2O2-1M NaOH, 5 U/mL HRP, 50 mM H2O2 mixed in a volumetric ratio of 3:1:1). Fluorescence was measured using multi-mode spectrophotometer (Biotek instruments) with excitation at 368 nm and emission at 450 nm.
as §2

[11] = pNPP assay / affinity (Examples 4-5); assay type: biochemical; conditions: 2.0 mM pNPP, 20 minutes, 37° C.; FIG. 8A, 9B
From the text: as §1, §2

[12] = ATP hydrolysis using purified recombinant apyrase (AMFAS, Example 2); assay type: biochemical
Method: A titrated series of ATP solutions from 100 mM to 0.01 mM in 50 mM Tris, pH 7.5 were prepared and incubated with 700 ng of Apyrase (mutant prepared in Example 1 and wild-type Shigella flexneri apyrase as control) for 30 minutes at 37° C. (100 μL reaction). After the incubation, 100 μL AMFAS reagent was added and OD was taken at 630 nm using multimode reader (Biotek instruments). The color formation is proportional to the amount of ATP degraded (dephosphorylated to ADP or AMP). […] Specific activity at 10 mM ATP was determined as 6.3 μmoles/min/mg for the mutant apyrase.

[13] = Whole cell ATP degradation activity assay (periplasmic samples, AMFAS); assay type: biochemical; conditions: induced cells, lysozyme/EDTA, 37° C., 30 minutes
Method: As a crude assay for confirming expression of active enzyme, a whole cell ATP degradation activity assay was performed. 100 mM ATP was prepared in 50 mM Tris, pH 7.5. After dissolution, the pH was adjusted to 7.5 using NaOH. Pellets from 1 mL culture of induced cells were taken and washed twice with saline containing 1 mM Calcium chloride. The cells were treated with Lysozyme and EDTA to lyse the cell wall to release the periplasmic contents.
150 μL of 40 mM EDTA and 150 μL of 10 mM ATP was added to the pellet and mixed well, followed by incubation at 37° C. for 30 minutes.

With “Shigella flexneri apyrase (ApiOne, SEQ ID NO: 1) ApiTwo mutant L66V (Shigella flexneri; L66V)” the Km [1] was 5.6 mM and the Km [2] was 0.76 mM.

In the case of EIEC apyrase (Escherichia coli), the Km [3] is reported as 25.0 mM and the Km [4] is reported as 0.021 mM.

For “Shigella flexneri apyrase, mutant apyrase of Example 1, SEQ ID NO: 3 (S50N, F54V, G63R, L66V, N70Q, E77V, A791, D90T, S97T, L108M, Q113N, V120R, K124R, Y127Q, P143R, 1151L, F162N, A167G, N174Q, K177R, L182F, G184A, W199Y, G206R, V213A, N219K, F223W, L227S, F234Y, T239Q, E243D) (Shigella flexneri; A167G/A79I/D90T/E243D/E77V/F162N/F223W/F234Y/F53V/G185A/G206R/G63R/I151L/K124R/K178R/L108M/L182F/L227S/L66V/N174Q/N219K/N70Q/P143R/Q113N/S50N/S97T/T239Q/V120R/V213A/W199Y/Y127Q)”, the Km [5] was 2.1 mM.

In the case of `O=[N+]([O-])c1ccc(OP(=O)(O)O)cc1` [pNPP, para-Nitrophenylphosphate], the “Km for pNPP” value [6] is reported as “Too low affinity”, the Km [7] is reported as 3.5 mM and the Km (alkaline phosphatase) is reported as 8.4 mM.

B1: ApiOne: wild-type Shigella flexneri apyrase, SEQ ID NO: 1, termed ApiOne (protein, listed as Shigella flexneri)
chain: MKTKNFLLFCIATNMIFIPSANALKAEGFLTQQTSPDSLSILPPPPAENSVVFQADKAHYEFGRSLRDANRVRLASEDAYYENFGLAFSDAYGMDISRENTPILYQLLTQVLQDSHDYAVRNAKEYYKRVRPFVIYKDATCTPDKDEKMAITGSYPSGHASFGWAVALILAEINPQRKAEILRRGYEFGESRVICGAHWQSDVEAGRLMGASVVAVLHNTPEFTKSLSEAKKEFEELNTPTNELTP
In the case of B1, the pNPP hydrolysis [8] is listed as “not active”, the pNPP hydrolysis ([8]; listed as wildtype enzyme) is listed as “lacks such activity” and the “Hydrolysis of pNPP” value [9] is listed as “does not hydrolyse”. For the same molecule, the “Hydrolysis of TPP (in words)” value [10] was “no detectable activity”.

B2: E77V: Shigella flexneri apyrase (SEQ ID NO: 1) with single substitution E77V (protein, listed as Shigella flexneri)
chain: MKTKNFLLFCIATNMIFIPSANALKAEGFLTQQTSPDSLSILPPPPAENSVVFQADKAHYEFGRSLRDANRVRLASVDAYYENFGLAFSDAYGMDISRENTPILYQLLTQVLQDSHDYAVRNAKEYYKRVRPFVIYKDATCTPDKDEKMAITGSYPSGHASFGWAVALILAEINPQRKAEILRRGYEFGESRVICGAHWQSDVEAGRLMGASVVAVLHNTPEFTKSLSEAKKEFEELNTPTNELTP
With B2 the “Hydrolysis of pNPP (in words)” value [11] was “could hydrolyse” and the “Hydrolysis of TPP (in words)” value [10] was “could hydrolyse”.

B3: L66V (protein, listed as Shigella flexneri)
chain: MKTKNFLLFCIATNMIFIPSANALKAEGFLTQQTSPDSLSILPPPPAENSVVFQADKAHYEFGRSVRDANRVRLASEDAYYENFGLAFSDAYGMDISRENTPILYQLLTQVLQDSHDYAVRNAKEYYKRVRPFVIYKDATCTPDKDEKMAITGSYPSGHASFGWAVALILAEINPQRKAEILRRGYEFGESRVICGAHWQSDVEAGRLMGASVVAVLHNTPEFTKSLSEAKKEFEELNTPTNELTP
In the case of B3, the “Hydrolysis of pNPP (in words)” value [11] is reported as “could hydrolyse” and the “Hydrolysis of TPP (in words)” value [10] is reported as “could hydrolyse”.

B4: F53V: Shigella flexneri apyrase (SEQ ID NO: 1) with single substitution F53V (protein, listed as Shigella flexneri)
chain: MKTKNFLLFCIATNMIFIPSANALKAEGFLTQQTSPDSLSILPPPPAENSVVVQADKAHYEFGRSLRDANRVRLASEDAYYENFGLAFSDAYGMDISRENTPILYQLLTQVLQDSHDYAVRNAKEYYKRVRPFVIYKDATCTPDKDEKMAITGSYPSGHASFGWAVALILAEINPQRKAEILRRGYEFGESRVICGAHWQSDVEAGRLMGASVVAVLHNTPEFTKSLSEAKKEFEELNTPTNELTP
For B4, the “Hydrolysis of pNPP (in words)” value [11] was “could hydrolyse” and the “Hydrolysis of TPP (in words)” value [10] was “could hydrolyse”.

B5: Mutant apyrase (protein)
chain: MKTKNFLLFCIATNMIFIPSANALKAEGFLTQQTSPDSLSILPPPPAENNVVVQADKAHYEFRRSVRDAQRVRLASVDIYYENFGLAFSTAYGMDITRENTPILYQLMTQVLNDSHDYARRNAREYQKRVRPFVIYKDATCTRDKDEKMALTGSYPSGHASNGWAVGLILAEIQPQRRAEIFRRAYEFGESRVICGAHYQSDVEARRLMGASAVAVLHKTPEWTKSSSEAKKEYEELNQPTNDLTPLEHHHHHH
modifications: Synthetic construct mutated variant
With B5 the pNPP hydrolysis ([8]; listed as mutant) was “has acquired the ability to hydrolyse pNPP”, the pNPP hydrolysis ([8]; listed as mutant apyrase) was “considerable activity” and the “ATP degradation activity compared with wild-type” value ([12]; ATP 100 mM to 0.01 mM, 37° C., FIG. 4) was “indistinguishable from the wild-type enzyme”. For the same molecule, the Specific activity ([12]; at 10 mM ATP) was 6.3 µmol/min/mg and the “ATP hydrolysis by periplasmic fraction” value [13] was “can hydrolyse ATP similar to the WT apyrase”.

— patent publication US20240167005A1, “MODIFIED SHIGELLA APYRASE AND USES THEREOF” (APIRAYS BIOSCIENCES AB, priority 2021, published 2024)
